The experiment deals with maternal Chd2 locus. As to the kind of experiment: Donor-free interchromosomal homologous recombination (ICHR) in IVF-derived Chd2^R1684H/+ embryos. The class given is cell-based, mouse. The method, then:
tracrRNA, crRNAs, and ssODNs were synthesized by Integrated DNA Technologies (TABLE 1). All injection mixtures were prepared in a final volume of 50 μL according to the following methodology: Using RNase-free water, reagents, and consumables, crRNA (final concentration 0.61 μM), tracrRNA (final concentration 0.61 μM), and ultrapure Tris-HCl, pH 7.39 (final concentration 10 mM, ThermoFisher) were mixed and incubated at 95° C. for 5 minutes. The mixtures were cooled to room temperature for 10 minutes on the benchtop, and then, EnGen Cas9-NLS S. pyogenes (New England Biolabs) was added to a final concentration of 30 ng/μL. The mixtures were incubated at 37° C. for 15 minutes before adding any remaining components: ssODN (final concentration 3 ng/μL or 30 ng/μL), RAD51 (Creative Biomart, final concentration 10 ng/μL). Injection mixtures were stored on ice and briefly heated to 37° C. prior to injection. For experiments utilizing RS-1, embryos were cultured in KSOM-AA (EMD Millipore MR-121-D) with […] RS-1 (Sigma) dissolved in DMSO or DMSO (Sigma, 1:1000) for 24 hours, washed, and cultured in EmbryoMax FHM HEPES Buffered Medium (Sigma) until collection for genotyping.
For experiments using wildtype recombinant proteins, the following proteins were used: RAD51 (Creative Biomart RAD51-134H), USP1/WDR48 (Creative Biomart USP1&WDR48-1067H), BCCIP (Origene TP303061), XRCC1 (TP304952), XRCC4 (Origene TP312684), DMC1 (Origene TP318311). For experiments using mutant RAD51, custom RAD51 preparations were produced by Creative Biomart according to their standard protocol for producing the wildtype RAD51 used in all other experiments. Mutant DNA sequences used for cloning are described in TABLE 2. All RAD51 mutants were modeled in human RAD51 transcript variant 4 (NCBI accession NM_001164269), as this is the transcript variant of the wildtype RAD51-134H protein used in all other experiments.
In vitro fertilization was performed using FERTIUP® Mouse Preincubation Medium and CARD MEDIA (Kyudo Company) according to the manufacturer's protocol. Non-virgin Chd2^R1684H/R1684H males that were >8 weeks old were used as sperm donors. Following IVF, embryos were cultured for 8 hours and then injected using the PNI protocol described below.
For all experiments except those described in FIG. 6, the male pronucleus was injected. Injections performed for the CPI portion of FIG. 6 were targeted to the cytoplasm. All microinjections were performed using a Narishige Micromanipulator, Nikon Eclipse TE2000-S microscope, and Eppendorf 5242 microinjector. Individual zygotes were injected with 1-2 pL of injection mixture using an “automatic” injection mode set according to needle size and adjusted for clear increase in pronuclear volume. Following injections, cells were cultured in KSOM-AA until collection for genotyping. For experiments giving rise to F0 animals, embryos were surgically implanted into pseudopregnant CD-1 females (Charles River Laboratories, Strain Code 022) 24-hours post-injection and allowed to develop normally until natural birth.
Embryos were collected at morula-to-blastocyst stage in 4 μL nuclease-free water. After collection, 4 μL of 2× embryo digestion buffer was added to each sample (final concentrations: 125 μg/mL proteinase K, 100 mM Tris-HCl pH 8.0, 100 mM KCl, 0.02% gelatin, 0.45% Tween-20, 60 μg/mL yeast tRNA) and embryos were lysed for 1 hour at 56° C. Proteinase K was inactivated via incubation at 95° C. for 10 minutes and DNA was stored at −20° C. until use.
Chd2^R1684H genotyping was performed via a two-step, nested approach. Except for experiments described in FIGS. 3A-3G, all 8 μL of embryo DNA were used as input for the initial, long round of PCR. Genotyping of mouse pups and adult animals was performed using 2 μL of purified tail DNA. For all embryo genotyping, reactions mixtures were set up in a UV-sterilized laminar flow hood using sterile reagents and filter tips to avoid contamination. […]

[1] abbreviates: compared to embryos injected with wildtype RAD51.

B1: G151D: recombinant RAD51 gain-of-function mutant with increased strand exchange activity, SEQ ID NO: 8 (protein)
chain: MAMQMQLEANADTSVEEESFGPQPISRLEQCGINANDVKKLEEAGFHTVEAVAYAPKKELINIKGISEAKADKILTESRSVARLECNSVILVYCTLRLSGSSDSPASASRVVGTTGGIETGSITEMFGEFRTGKTQICHTLAVTCQLPIDRDGGEGKAMYIDTEGTFRPERLLAVAERYGLSGSDVLDNVAYARAFNTDHQTQLLYQASAMMVESRYALLIVDSATALYRTDYSGRGELSARQMHLARFLRMLLRLADEFGVAVVITNQVVAQVDGAAMFAADPKKPIGGNIIAHASTTRLYLRKGRGETRICKIYDSPCLPEAEAMFAINADGVGDAKD
In the case of B1, the “efficiency of ICHR stimulation” value is about 100% and the “indel-to-ICHR ratio (level)” value is given as “near zero”. Also, under “27 injected zygotes”, the indel events result is reported as “not a single indel event was identified”. Further, the apparent editing efficiency (blastocysts from Cas9/crRNA/tracrRNA-injected embryos) was determined as 22%. In addition, the “ICHR rate compared with baseline (Cas9-only embryos)” value (co-injected with Cas9/crRNA/tracrRNA, no donor) was “ICHR was observed in all edited cells”. Besides, for the setting “compared to control embryos”, the indel-to-ICHR ratio result is given as “drastic decrease” and the overall indel rate entry is on record as “drastic decrease”. Besides, under setting [1], the indel-to-ICHR ratio result is reported as “significant decreases” and the overall indel rate result is reported as “significant decreases”.

The values above are taken from patent US11643670B2, “Methods of enhancing chromosomal homologous recombination” (Massachusetts Institute of Technology, priority 2018, dated 2023).
